Source: publication PMC9129083

B1: TaXa21-RNA (ssRNA)
RNA: UUUCCCUAAAGUUUCUUACAAUGAUCUGGUUGAAGCAACAAAG
B2: M2-RNA (ssRNA)
RNA: AACUUCUUCUUUACUUCCUUUCCU
B3: M1-RNA (ssRNA)
RNA: GAAGAAGAAGAGAAGACCUGAAGA
B4: M1-m-RNA (ssRNA)
RNA: AGGAGGCAAGGACCCACCUAGGCA
B5: TaWRKY53-RNA (ssRNA)
RNA: ACUUCUUCUUGUUGUUGCUCCUGCUGC

target: Pst_A23 (Puccinia striiformis f. sp. tritici, UniProt A0A0L0VHF6 =M+36-181, internal_change); assay: EMSA

| Binder | binding result |
| --- | --- |
| B1 | binds |
| B2 | binds |
| B3 | binds |
| B4 | no binding |
| B5 | binds |
